In patent US20220372577, “ANALYTE DETECTION METHOD” (IMPERIAL COLLEGE OF SCIENCE, TECHNOLOGY AND MEDICINE, published 2022):

Molecular target: alpha-thrombin (UniProt P00734;P00734 P00734:328-363,P00734:364-622)
Experiment: binding in 5% human serum, 0.1-100 nM thrombin, 30 pM MB-Carrier; comparable to 0.1 M KCl

AGGTCGCCGCCCTCCAACGGTTGGTGTGGTTGG (structured_DNA, internal FAM on T13; 3' DABCYL) [TBA-embedded molecular beacon on lambda-DNA carrier (MB-Carrier)]: binds.
